Data taken from FireProtDB (doi:10.1016/j.bbadis.2004.06.012).

B1: Aryl-hydrocarbon-interacting protein-like 1, Q9NZN9 (parent)
chain: MDAALLLNVEGVKKTILHGGTGELPNFITGSRVIFHFRTMKCDEERTVIDDSRQVGQPMHIIIGNMFKLEVWEILLTSMRVHEVAEFWCDTIHTGVYPILSRSLRQMAQGKDPTEWHVHTCGLANMFAYHTLGYEDLDELQKEPQPLVFVIELLQVDAPSDYQRETWNLSNHEKMKAVPVLHGEGNRLFKLGRYEEASSKYQEAIICLRNLQTKEKPWEVQWLKLEKMINTLILNYCQCLLKKEEYYEVLEHTSDILRHHPGIVKAYYVRARAHAEVWNEAEAKADLQKVLELEPSMQKAVRRELRLLENRMAEKQEEERLRCRNMLSQGATQPPAEPPTEPPAQSSTEPPAEPPTAPSAELSAGPPAEPATEPPPSPGHSLQH

Variants of: B1
Settings: Homo sapiens; pH 7.9; Thermal; CD; sodium Phosphate 5 mM; transition: 2; whole UniProt chain shown

Variant	Tm [°C]	change of melting temperature, mutant - wild type (higher = more stable) [°C]
A197P	40.5	-3.6
G262S	40.1	-4
C239R	46.7	2.6
T114I	34.8	-9.3
I206N	41.4	-2.7
W278X	33.2	-10.9
R302L	43.2	-0.9
